Where a chain is given by its changes, count along the chain named. Values belong to the binder of their own block, whether it stands above or below them.
Biological target: T1, hNgR1-his (human, UniProt Q9BZR6 27-447, limits assumed)
T1 construct: Soluble antigen flowed over antibodies captured on Protein A chips; also called antigen protein (hNgR1-his); the antigen; not shown: histidine tag
T1 sequence (looked up): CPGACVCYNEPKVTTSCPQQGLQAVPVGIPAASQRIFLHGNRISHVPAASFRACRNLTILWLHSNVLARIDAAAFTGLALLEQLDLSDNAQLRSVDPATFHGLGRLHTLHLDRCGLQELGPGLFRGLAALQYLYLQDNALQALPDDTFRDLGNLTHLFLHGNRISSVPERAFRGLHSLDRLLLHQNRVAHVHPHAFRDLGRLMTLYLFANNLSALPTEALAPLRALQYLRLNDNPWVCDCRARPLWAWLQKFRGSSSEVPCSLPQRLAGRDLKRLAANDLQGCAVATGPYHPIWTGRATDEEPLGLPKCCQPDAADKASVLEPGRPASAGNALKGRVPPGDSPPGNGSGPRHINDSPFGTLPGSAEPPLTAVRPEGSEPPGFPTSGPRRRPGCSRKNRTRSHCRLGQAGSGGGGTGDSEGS
Test: SPR, Biacore T200; IgG1 captured on Protein A chip, hNgR1-his flowed at different concentrations

B1: H6HE2L antibody (antibody, human IgG1, kappa, V domains shown)
VH: QMQLVQSGGGLEQPGRSLRLSCVTSGFNFNDYAMHWVRQAPGKGLEWVSGISWNSGAIGYADSVKGRFTVSRDNSKNSLYLQMNSLRAEDTAVYYCARDYNYETSGYYHGFDNWGQGTLVTVSS
VL: DIQMTQSPSSVSASVGDRVTITCRASQGISRWLSWYQQKPGKAPKLLIYAASNLQSGVPLRFSGSGSGTDFTLTINSLQPEDSATYYCQQTNNFPYTFGQGTKVEIKR
notes: Optimized from CSA108
Kd: 1.69 nM

B2: CSA123 antibody (antibody, human IgG1, kappa, V domains shown)
VH: QMQLVQSGAEVKKPGASVKVSCKVSGYTLSELSIHWVRQAPGKGLEWMGGFDPEDDETVYAQKFQGRVTLTDDTSTDTAYMELSSLRSEDTAVYYCARDLGYLTSGNYYDAFDIWGRGTMITVSS
VL: B1 VL with G28D, S30N, S34A, N53R, Y96R, K103R, V104L
notes: also called anti-NgR1 antibody CSA123
Kd: 31.5 nM

B3: CSA108 antibody (antibody, human IgG1, kappa, V domains shown)
VH: B1 VH with N101Y, H109Y
VL: B1 VL with S34A
notes: also called anti-NgR1 antibody CSA108
Kd: 23.3 nM

More lines, in order of falling Kd, values ahead:

Kd: 5.84 nM
B5: S3 antibody (antibody, human IgG1, kappa, V domains shown)
VH: B2 VH with D110N, D113G
VL: B1 VL with G28D, S30N, S34A, N53R, Y96R, K103R, V104L
notes: Optimized from CSA123

Kd: 5.51 nM
B8: S6 antibody (antibody, human IgG1, kappa, V domains shown)
VH: B2 VH with E31G, P53S
VL: B1 VL with G28D, S30N, S34A, N53R, Y96R, K103R, V104L
notes: Optimized from CSA123

Kd: 5.33 nM
B7: D11 antibody (antibody, human IgG1, kappa, V domains shown)
VH: B2 VH with P53S, I114F
VL: B1 VL with G28D, S30N, S34A, N53R, Y96R, K103R, V104L
notes: Optimized from CSA123

Kd: 4.15 nM
B4: G8 antibody (antibody, human IgG1, kappa, V domains shown)
VH: B2 VH with T28P, P53S, D113G
VL: B1 VL with G28D, S30N, S34A, N53R, Y96R, K103R, V104L
notes: Optimized from CSA123

Kd: 0.194 nM
B6: C1HE2E6 antibody (antibody, human IgG1, kappa, V domains shown)
VH: B1 VH with T104I, H109Y
VL: B1 VL with S67F
notes: Optimized from CSA108
